Assay results taken from the nanobody polyreactivity screen of Harvey et al. (2022).

Assay: yeast display, Sf9 membrane polyspecificity reagent, FACS + sequencing; frameworks hold sequencing errors
In short: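 Synthetic nanobody libraries on Saccharomyces cerevisiae BJ5465 were galactose-induced for 36–48 hours, stained 1 hour at 4 °C with 10% biotinylated, detergent-solubilized Sf9 membrane reagent and enriched on streptavidin microbeads. FACS then separated cells into low and high (top ~1%) gates by anti-HA (expression) and streptavidin (reagent binding) fluorescence. Genes were colony-PCR amplified, MiSeq 2 × 250 sequenced and CDR-length filtered. A clone's polyreactivity label is that of its gate of origin.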

Row | Sequence | polyreactivity (PSR sort gate)
1 | QVQLVESGGGLVQAGGSLRLSCAASGFIFTRYAMGWYRQAPGKERELVAAISASGGSTYYADSVKGRFTISRDNAKNTVYLQMNSLKPEDTAVYYCAAVPYRYTYDYWGQGTQVTVSS | high polyreactivity
2 | QVQLVESGGGLVQAGGSLRLSCAASGRIVKANAMGWYRQAPGKERELVAAIRESGGTTYYADSVKGRFTISRDNATNTVYLQMNSLKPEDTAVYYCAAAYRDTQYNYYYWGQGTQVTVSS | high polyreactivity
3 | QVQLVESGGGLVQAGGSLRLSCAASGRIFTHNAMGWYRQAHGKERELVAAISFSGVSTYYADSVKGRFTISRDNAKNTVYLQMNSLKPEDTAVYYCARRYWYPDAFYRYDYWGQGTQVTVSS | low polyreactivity
4 | QVQLEESGGGLVQAGGSLRLSFAASGFTFVRNTMGWDRQAPGKERELVAAISRSGGSTYYADSVKGRFTISRDKAKNTVYLQMNSLKPEDTAVYYCNAYRYVHYDWGQGTQVTVSS | high polyreactivity
5 | QVQHVESGGGLVQAGCSLRLSCAASGLIFGLYAMGWFRPAPGKERELVAAISYRTDSTYADSVKGRFTISRDNAKNTVYLQMNSLKPEDNAVYYCAADLRVSVRYYYWGHGTQVTVSS | low polyreactivity
6 | QVQLVESGGGLVQAGGSLRLSCAACGRTFQHYAMGWYRQAPGKERELVAAISSGGRTYYADSVKGRFTISRDNAKNTVYLLMNSLKPEDTAVYYCAARYHGRDPRQIRYGYWGQGTQVNVSS | high polyreactivity
7 | QDQLVESGGGLVQAGGSLRLSCAASGSTFTRNSMGRYRQAPWKERELVAVISSRGGRTYYADSVKGRFTISRDNAKNSVYLPMNSLKPDDTAVYYCAARYVIPLGNTYDYWGQGTQVNVSS | high polyreactivity
8 | QVQLVESGGGLVQAGGSLRLSCAASGFIFYPYAMGWYRQAPGKERELVAVITSGGRTYYADSVKGRFTISRDNAKNTVYLQMNSLKPEDTAVYYCAARYGRIHWKANWPEYGYWGQGTQVTVSS | low polyreactivity
9 | QVQLVESGGGLVQAGGSLRLSCAASGITFYFYTMGWYRQAPGKERELVAAISRGGGSTYYADSVKGRFTISRDNAKNTVYLQMNSLKPEDTAVYYCAADYKPHYYHDDYWGQGTQVTVSS | low polyreactivity
10 | QVQLVESGGGLVQAGGSLRLSCAASGSIFRGYTMGWYRQAPGKERELVAAITSGDSTNYADSVKGRFTISRDNAKNTVYLQMNSLKPEDTAVYYCAAGRLYLPYLVYRTYSFVGYYYWGQGTQVTVSS | high polyreactivity
11 | QVQLVDSGGGLVQAGGSLRLSCAASGRTFYSYAMGWYRQAPGKERELVSAISRNGGSTYYADSVKGRFTISRDNAKNSVYLQMNSLKPEDTAVYYCAAKRAGPYGISKGMDYWGQGTQVTVSS | high polyreactivity
12 | QVQLVESGGGLVQAGGSLRLSCAASGFTFTSFAMGWYRQAPGKERELVAAISARGGRTNYADSVKGRFTISRDNAKNTVYLQKNSLKPEDTAVYYCAADGFRAAYLYDYWGQGTQVTVSS | high polyreactivity
13 | QVQLVESGGGLVQAGGSLRLSCAASGRIFVVYAMGWYRQAPGKERELVATITSGGSTYYADSVKGRFTISRDNAKNTVYLQMNSLKPEDTAVYYCAAYAYIFLDWGGYPYYLYEYDYWGQGTQVTVSS | low polyreactivity
14 | QVQLVESGGGLVQAGGSLRLSCAASGRTFIGYAMGWYRQAPGKERELVATISVSGGSTYYADSVKGRFTISRDNAKNTVYLQMNSLTPVDTAVYYCADDPRYLQSWRGEFAGESWGQGTQVTVAS | low polyreactivity
15 | QDQLVESGGGLVQAGGSLRLSCAASGSTFEYYAMGWYRQAPGKERELVAAITRRGGSTYYADSVKGRFTISRDNAKNTVYLQMNSLKPEDTAVYYCAAVPTQKSQRTHDYCGQGTQVTVSS | low polyreactivity
16 | QVQLVESGGGLGQAGGSLRLSCASSGFTFVPYAMVWYSPAPGKERELVAAIDFDDATTYYADSVKGRFTISRDNAKNTVYLQMNSMKPEDTALYYCAADGFYAPDDAPFYYWGQGTQVTVSS | high polyreactivity

Row | Sequence | polyreactivity (PSR sort gate)
17 | QVQLVESGGGLVQAGGSLRLSCAASGFNFRGYAMGWYRQAPGKERELVAAINSGDSTNYADSVKGRFTISRDNAKNTVYLQMNSLKPEDTAVYYCAASIYAALNGGPGYDYWGQGTQVTVSS | low polyreactivity
18 | QVQLVESGGGLVQAGGSLRLSCAASGRTLVINVMGWYRQAPGKERELVAAISFRSGNTYYADSVKGRFTISRDNAKNTVYLQMNSLKPEDTAVYYCAAYTYRTSTTSSYYYWGQGTQVTVSS | high polyreactivity
19 | QVQLVESGGGLVQAGGSLRLSCAASGSTFGDYSMGWYRQAPGKERELVAAISRGGSTYYADSVKGRFTISRDNAKNTVYLQMNSLKPEDTAVYYCNNDVGYSASPDGSTFDYWGQGTQVTVSS | low polyreactivity
20 | QVQLVESGGGLVQAGGSLRLICAASGLTFVYYTKRSYTQAPGKEREFVAGINSGGSTYYADSVKGRFTISRDNAKNTVYVQMNSLKPVDTAVYYCAAVERGYRRFRRIYDYWGQGTQVTVSS | high polyreactivity
21 | QVQLVESGGGLVQAGGSLRLSCAASGTFKWYAMGWYRQAPGKERELVAVISSSGGTTYYADSVKGRFTISRDNAKNTVYLQMNSLKPEDTAVYYCNVVKRRSDWGMDYWGQGTQVTVSS | high polyreactivity
22 | QVQHVESGGGLVQAGGSLRLSCDASGITFGHYTMGWYRQAHGKEREFVAAISWSGGSTYYADSVKGRFTISRDNAKNTVYLQMNSLKPEYTAVYYCNRVKPVIASYDSDYWGQGTQVTVSS | low polyreactivity
23 | QVQLVESGGGLVQAGCSLRISCAASGSTFYINAMGWYRQAPGKERELVAAISRGGSTYYADSVKGRFTISRDNAKNTVYLQMNSLKPEDTAVYYCAADFSRSYRFNYWGQGTQVTVSS | high polyreactivity
24 | QVQLVESGGGLVQAGGSLRLSCAASGRIFVDNDMGWYRQAPGKERELVAAISGNGGNTNYADSVKGRFTISRDNAKNTVYFQMNSLKPEDTAVYYCAATYPVGHVYRYDYWGQGTQVTVSS | low polyreactivity
25 | QVQLVESGGGLVQAGGSLRLSCAASGNTFKYYAMGWYRQAPGKERELVAAITWNGARTYYADSVKGRFTISRDNAKNTVYLQMNSLKPEDTAVYYCNARQGYRFDYWGQGTQVTVSS | high polyreactivity
26 | QVQLVESGGGLVQAGGSLRLSCAASGIIFQYYAMGWYRQAPGKERELVAAITSSGGSTFYADSVKGRFTISRDNSKNTVYLQMNSLKPEDTAVFYCAGVYHRSTYDYWGQGTQVTVSS | high polyreactivity
27 | QVQLVESGGGLVQAGGSLRLSCAASGFTFDFYAMGWYRQAPGKERELVAAISKNDGTTYYADSVKGRFTISRDNAKNTVYLQMNSLKPEDTAVYYCAAESGYPVYTYVSSGDYWGQGTQVTVSS | low polyreactivity
28 | QVQLVESGGGLVQAGGSLRLSCAASGITFDYYGMGWYIQAPGKERELVASITSGGSTNYADSVKGRFTISRDNPKNTVYLQMNSLKPEDTAVYYCNAEFWEVSPDPRDYDYWGQGTQVTVSS | low polyreactivity
29 | QVQLVESGGGLVHAGGSIRLSCSASGRTVGVNMGWYRQSPGKERELVAVISSGDSTNYADSVKGRFTISRDNAKNTFYLQMNSLKQEDTAVYYCNAYGSDRLTLDDYWGQGTQVTVSS | low polyreactivity
30 | QVQLVESGGGLVQAGGRLRLSCAASGRTFTQYTMGWYRQAPGKERELVAAISSGGSTYYADSVKGRFTISRDNAKNTVFLQMNSLNPEDTAVYYCAARSYYAKSRYYYWGQGTQVTVSS | high polyreactivity
31 | QVQLVESGGGLVQAGGSLRLSCAASGSTFSIYAMGWYRKAPGKERELVAAISTDGGSTNYADSVKGRFTISRDNAKNTVYLQMNILKPEDTAVYYCAADTYWYLSPYDYWGQGTQVTVSS | low polyreactivity
